# Reference: patent publication US20120213761
# T1: tumor necrosis factor receptor-associated factor 2 (TRAF2), endogenous, in human cardiac tissue, Q12933
# T1 chain: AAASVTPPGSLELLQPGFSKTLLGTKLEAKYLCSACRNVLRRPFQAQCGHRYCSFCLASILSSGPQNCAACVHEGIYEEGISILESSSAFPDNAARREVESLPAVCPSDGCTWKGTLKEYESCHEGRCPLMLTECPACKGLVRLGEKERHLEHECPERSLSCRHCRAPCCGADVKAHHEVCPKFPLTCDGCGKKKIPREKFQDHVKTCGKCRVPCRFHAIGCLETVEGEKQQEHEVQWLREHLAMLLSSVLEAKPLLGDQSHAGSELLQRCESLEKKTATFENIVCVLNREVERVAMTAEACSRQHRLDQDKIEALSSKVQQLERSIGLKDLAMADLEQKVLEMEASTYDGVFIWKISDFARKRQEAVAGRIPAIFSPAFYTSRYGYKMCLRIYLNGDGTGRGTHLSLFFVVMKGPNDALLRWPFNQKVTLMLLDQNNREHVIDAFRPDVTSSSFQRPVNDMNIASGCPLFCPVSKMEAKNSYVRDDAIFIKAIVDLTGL
# Target: T1, tumor necrosis factor …
protein,measurement,value
"recombinant GSTP1 (Assay Design, Ann Arbor, Mich.) (protein) PPYTVVYFPVRGRCAALRMLLADQGQSWKEEVVTVETWQEGSLKASCLYGQLPKFQDGDLTLYQSNTILRHLGRTLGLYGKDQQEAALVDMVNDGVEDLRCKYISLIYTNYEAGKDDYVKALPGQLKPFETLLSQNQGGKTFIVGDQISFADYNLLDLLLIHEVLAPGCLDAFPLLSAYVGRLSARPKLKAFLASPEYVNLPINGNGKQ","JNK1 and p38 activation (active JNK / active p38 protein, Western blot) in cardiac tissue cultures",acts as a negative regulator of JNK1 and p38 activation
same,TNF-α-induced JNK and p38 activation in DCM cardiac tissue cultures (Western blot),higher GSTP1 concentrations inhibit TNF-α-induced JNK and p38 activation in DCM
